{"source": "paper PMC11892739", "about": "“Site-specific molecular glues for the 14-3-3/Tau pS214 protein–protein interaction via reversible covalent imine tethering” (RSC Medicinal Chemistry, 2025)", "key": {"14-3-3ζ/Tau pS2 peptide": {"target": "T1, 14-3-3ζ/Tau pS2 peptide (Homo sapiens, UniProt P63104)", "T1 construct": "made in house; host or cells: NiCo21 (DE3) E. coli", "T1 sequence (P63104 1-245)": "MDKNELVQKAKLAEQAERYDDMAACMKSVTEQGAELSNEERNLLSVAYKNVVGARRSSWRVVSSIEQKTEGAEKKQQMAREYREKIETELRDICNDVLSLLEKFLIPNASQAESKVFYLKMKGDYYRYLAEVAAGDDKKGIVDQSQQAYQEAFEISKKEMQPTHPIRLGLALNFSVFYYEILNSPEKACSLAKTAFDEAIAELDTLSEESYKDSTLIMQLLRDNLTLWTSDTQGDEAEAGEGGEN", "experiment": "Differential scanning fluorimetry of 14-3-3 with Tau pS2 peptide and compounds", "type": "binding", "conditions": "10-fold excess of Tau pS2 peptide relative to 14-3-3ζ", "description": "Fig. 3 a Dose–response fluorescence anisotropy data of compound titrations to 10 nM FITC-labeled Tau pS2 peptide and 100 nM 14-3-3ζ. […] Mean of three individually performed experiments (see ESI ^† Fig. S8 for the protein titrations). e Differential scanning fluorimetry assay results. Identified melting temperatures (Tm) of 14-3-3γ alone (2.5 μM) and in the presence of Tau pS2 peptide (25 μM) and additionally with selected compounds (75 μM).\nAs an orthogonal method to profile the PPI stabilizing activity of selected compounds, differential scanning fluorimetry (DSF) assays were performed (Fig. 3e). […] Upon addition of compounds (1, 11, 13–14, and 20–22) to this PPI complex (30-fold compared to 14-3-3ζ), an additional increase in melting temperature between 0.9 °C and 2.1 °C was observed relative to the binary 14-3-3ζ/Tau pS2 peptide system. These observations are in agreement with the stabilization observed in the FA data and strongly testify to the molecular glue effect of our compound, by enhancing the stability of the PPI complex. […]\nchromatography (HisTrap high performance cartridges, Cytiva). Typically two 5 mL columns were used for a 2 L culture in which the lysate was loaded on the column, washed with 10 CV wash buffer (50 mM Hepes, pH 8.0, 300 mM NaCl, 25 mM imidazole, 2 mM βME), and eluted with several fractions (2-4 CV) of elution buffer (50 mM Hepes, pH 8.0, 300 mM NaCl, 250 mM imidazole, 2 mM βME). Fractions containing the 14-3-3 protein were combined and dialyzed into 25 mM HEPES pH 8.0, 200 mM NaCl, 10 mM MgCl2, 2 mM βME, followed by dialysis into 25 mM HEPES, 100 mM NaCl, 10 mM MgCl2, 500 μM TCEP (adjusted to pH 8.0). Dialyzed protein was concentrated to ∼40 mg/mL, analyzed by Q -Tof LC/MS, and aliquots were flash -frozen for storage at −80 °C. For 14 -3-3σ∆c, 1 mg TEV per 100 mg purified protein was added to the dialysis to remove the purification tag. The cleaved sample was then again loaded on a 10 mL Ni-NTA column to separate the cleaved product from the expression tag and residual uncleaved protein. The flowthrough was loade d on a Superdex 75 pg 16/60 size exclusion column (GE Life Sciences) using 25 mM HEPES, 100 mM NaCl, 10 mM MgCl2, 500 μM TCEP (adjusted to pH = 8.0) as running buffer. Fractions containing the 14 -3-3 protein were pooled and concentrated to ∼60 mg/mL, analyzed Q -Tof LC/MS, and aliquots were flash -frozen for storage at −80°C. […]\nThe peptide screen was performed in a similar way as the 14-3-3ζ titration in the precence of compound.\n14-3-3ζ was titrated in a 2-fold dilution series (starting at 400 µM 14-3-3ζ) to 100 nM of fluorescein-labeled peptides and 250 µM compound 18 (1% DMSO) in FA buffer (10 mM HEPES pH 7.4, 150 mM […]\nData shown is the average of a scientific triplicate.\nDifferential Scanning Fluorimetry (DSF)\nDSF was performed using 40 µl samples containing 2.5 µM 14 -3-3ζ, 25 µM Tau peptide (Tau pS2, Tau pS214 or Tau pS324), […] (1% DMSO) and 5x ProteoOrange (Lumiprobe, 5000x stock in DMSO) in 10 mM HEPES, 150 mM NaCl, 50 µM TCEP (pH 7.4). The samples were heated from 35 °C to 79°C at a rate of 0.3 °C per 15 s in a C FX96 Touch Real-Time PCR Detection System (Bio -Rad). Fluorescence intensity was determined using excitation ( λem=525/20 nm) and emission ( λex=570/20 nm) filters.\nBased on these melting curves, the negative derivative melting curve is obtained from which the melting temperature Tm was determined. All described melting temperatures are based on two or three independent experiments, from which the average and standard deviations were determined.\nX-ray crystallography data collection and refinement\nFor x-ray crystallography, a C-terminally truncated 14-3-3σ protein (truncated after T231 to reduce flexibility) was used. This 14-3-3σ∆C was preincubated with Tau pS214 in complexation buffer (20 mM HEPES pH 7.5, 2 mM MgCl2 and 100 μM TCEP) in a 1:1.5 molar stoichiometry (protein:peptide) at a final protein concentration of 10.0 mg/mL. […]"}, "14-3-3ζ": {"target": "14-3-3ζ", "set-up": "method as in doi:10.1101/2024.03.15.585148", "conditions": "FA assay, binary complex; read-out: KD of bivalent Tau pS2 peptide to 14-3-3ζ; cited from earlier work"}}, "note": "Square brackets hold non-standard residues; d marks the D form. Ends that are not written are not given here. pS = N[C@@H](COP(=O)(O)O)C(=O)O", "data": [{"substance": "Tau pS2 peptide: bivalent Tau peptide phosphorylated at S214 + S324: SRTP{pS}LPTPPTREGGGSGGGSGGGVTSKCG{pS}LGNIHHK (chain 1 SRTP[pS]LPTPPTREGGGSGGGSGGGVTSKCG[pS]; numbers in words are those of the source; also: chains 1 and 2 are one continuous peptide joined through pS324) [reference compound]", "values": [{"measurement": "ΔTm, increase of 14-3-3 melting temperature compared to apo-14-3-3ζ", "setting": "14-3-3ζ/Tau pS2 peptide", "result": "~0.6", "unit": "°C"}, {"measurement": "Kd", "setting": "14-3-3ζ", "result": "945 ± 70", "unit": "nM"}]}]}
